Measured values as given in paper PMC3656124, “DNA Topoisomerase II Is Involved in Regulation of Cyst Wall Protein Genes and Differentiation in Giardia lamblia” (PLoS Neglected Tropical Diseases, 2013).

Assays:
[1] = target: T1, Topo IIN (Giardia lamblia, UniProt E2RU90 1-488); assay: EMSA; EMSA: 0.02 pmol 5'-labeled probe, 5 ng protein, 20 ul, 0.5 ug poly(dI-dC), 15 min, room temperature, 6% acrylamide gel; buffer, salt and pH only by citation; conditions: protein: recombinant; tags: C-terminal V5-His; label: 5'-32P
T1 sequence: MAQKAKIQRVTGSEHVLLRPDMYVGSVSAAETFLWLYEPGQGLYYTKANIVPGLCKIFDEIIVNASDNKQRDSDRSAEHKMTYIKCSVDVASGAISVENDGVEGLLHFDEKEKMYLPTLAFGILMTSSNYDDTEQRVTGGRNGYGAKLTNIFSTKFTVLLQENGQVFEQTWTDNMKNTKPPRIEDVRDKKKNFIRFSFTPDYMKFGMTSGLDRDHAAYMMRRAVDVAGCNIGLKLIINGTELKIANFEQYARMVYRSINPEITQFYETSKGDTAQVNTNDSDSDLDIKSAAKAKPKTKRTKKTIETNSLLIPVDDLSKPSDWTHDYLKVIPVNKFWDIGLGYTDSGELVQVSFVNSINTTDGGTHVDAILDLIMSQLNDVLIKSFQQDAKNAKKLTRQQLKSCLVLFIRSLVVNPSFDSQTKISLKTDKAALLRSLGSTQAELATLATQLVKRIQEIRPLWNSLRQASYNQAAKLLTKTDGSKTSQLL

[2] = target: T2, Topo IICm1 (Giardia lamblia, UniProt E2RU90 489-1491, Y847H); assay: as above; conditions: protein: recombinant; tags: C-terminal V5-His; chain copies: 2; label: 5'-32P
T2 sequence: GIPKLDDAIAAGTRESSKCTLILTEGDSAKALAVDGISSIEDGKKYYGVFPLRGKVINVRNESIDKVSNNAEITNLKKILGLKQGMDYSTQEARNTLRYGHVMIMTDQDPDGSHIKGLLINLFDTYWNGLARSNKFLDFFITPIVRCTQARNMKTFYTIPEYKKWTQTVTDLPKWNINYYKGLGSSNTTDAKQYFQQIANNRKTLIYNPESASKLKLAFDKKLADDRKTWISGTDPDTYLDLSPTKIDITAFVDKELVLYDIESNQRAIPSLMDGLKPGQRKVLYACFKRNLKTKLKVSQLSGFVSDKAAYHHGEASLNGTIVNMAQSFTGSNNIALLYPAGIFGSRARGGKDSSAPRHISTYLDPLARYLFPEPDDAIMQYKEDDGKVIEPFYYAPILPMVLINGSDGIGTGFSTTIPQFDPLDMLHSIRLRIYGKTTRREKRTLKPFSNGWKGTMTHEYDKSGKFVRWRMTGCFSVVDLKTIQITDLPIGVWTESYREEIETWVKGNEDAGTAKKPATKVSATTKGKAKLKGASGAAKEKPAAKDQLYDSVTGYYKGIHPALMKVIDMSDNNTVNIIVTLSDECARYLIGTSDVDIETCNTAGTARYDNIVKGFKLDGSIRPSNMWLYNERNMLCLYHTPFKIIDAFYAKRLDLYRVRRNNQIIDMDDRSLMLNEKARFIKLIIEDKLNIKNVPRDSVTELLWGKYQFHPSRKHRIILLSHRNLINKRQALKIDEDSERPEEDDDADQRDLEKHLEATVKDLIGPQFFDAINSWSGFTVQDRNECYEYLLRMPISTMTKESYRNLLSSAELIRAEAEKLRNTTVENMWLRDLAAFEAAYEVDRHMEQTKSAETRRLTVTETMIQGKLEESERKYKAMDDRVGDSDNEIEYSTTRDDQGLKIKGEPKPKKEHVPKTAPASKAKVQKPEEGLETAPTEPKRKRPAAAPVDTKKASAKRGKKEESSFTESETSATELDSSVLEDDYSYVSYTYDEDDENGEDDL

B1: IIBS (dsDNA)
DNA 1: ATGAAATCTAACAATGCGCTCATCGTCATCCTCGGC
DNA 2: GCCGAGGATGACGATGAGCGCATTGTTAGATTTCAT
B1: no binding [1]; binds [2].
